Data: article PMC12666128, “Engineering ω-transaminase for efficient dihydroxyacetone transamination in serinol biosynthesis starting from methanol” (Synthetic and Systems Biotechnology, 2025)

Substrate: O=C(CO)CO
Format: biochemical, Chromobacterium violaceum
Conditions: DHA as varied substrate; PLP-dependent

B1: Cv-ωTA (Chromobacterium violaceum ATCC 12472) (protein)
chain: MQKQRTTSQWRELDAAHHLHPFTDTASLNQAGARVMTRGEGVYLWDSEGNKIIDGMAGLWCVNVGYGRKDFAEAARRQMEELPFYNTFFKTTHPAVVELSSLLAEVTPAGFDRVFYTNSGSESVDTMIRMVRRYWDVQGKPEKKTLIGRWNGYHGSTIGGASLGGMKYMHEQGDLPIPGMAHIEQPWWYKHGKDMTPDEFGVVAARWLEEKILEIGADKVAAFVGEPIQGAGGVIVPPATYWPEIERICRKYDVLLVADEVICGFGRTGEWFGHQHFGFQPDLFTAAKGLSSGYLPIGAVFVGKRVAEGLIAGGDFNHGFTYSGHPVCAAVAHANVAALRDEGIVQRVKDDIGPYMQKRWRETFSRFEHVDDVRGVGMVQAFTLVKNKAKRELFPDFGEIGTLCRDIFFRNNLIMRACGDHIVSAPPLVMTRAEVDEMLAVAERCLEEFEQTLKARGLA
Km: 15.2 ± 0.11 mM | kcat: 1.61 ± 0.07 s⁻¹ | kcat/Km: 100 M⁻¹ s⁻¹
